Where two headings read alike, the source gives them in different places.
Experiments:
Assay in all cases: enzyme inhibition assay
[1] = target: Recombinant human cathepsin S (human) (UniProt P25774)
[2] = target: Recombinant human cathepsin L (human) (UniProt P07711)
[3] = target: Recombinant human cathepsin S (human) (UniProt P25774); remark: listed apart in the source

Chain of UniProt P25774 (P25774 17-331): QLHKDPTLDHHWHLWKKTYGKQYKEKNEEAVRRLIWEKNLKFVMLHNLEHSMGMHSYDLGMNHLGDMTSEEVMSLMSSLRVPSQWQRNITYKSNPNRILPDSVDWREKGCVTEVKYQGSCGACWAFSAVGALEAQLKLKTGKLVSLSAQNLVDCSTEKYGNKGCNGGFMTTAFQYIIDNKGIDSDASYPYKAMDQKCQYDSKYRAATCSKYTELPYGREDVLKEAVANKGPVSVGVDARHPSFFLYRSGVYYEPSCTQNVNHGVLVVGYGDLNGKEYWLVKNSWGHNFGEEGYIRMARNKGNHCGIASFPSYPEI
Chain of UniProt P07711 (P07711 18-333): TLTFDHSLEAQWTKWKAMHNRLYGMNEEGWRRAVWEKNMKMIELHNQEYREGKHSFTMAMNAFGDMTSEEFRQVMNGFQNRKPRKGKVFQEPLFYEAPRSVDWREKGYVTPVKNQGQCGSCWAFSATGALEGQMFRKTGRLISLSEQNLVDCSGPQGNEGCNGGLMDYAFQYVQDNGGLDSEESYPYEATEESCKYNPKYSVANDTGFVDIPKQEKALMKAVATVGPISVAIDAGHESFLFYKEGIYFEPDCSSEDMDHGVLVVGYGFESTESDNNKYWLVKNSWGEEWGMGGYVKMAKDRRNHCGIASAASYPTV

Ki [1]	Ki [2]	Ki [3]	Substance
2.21 nM	24.5 nM	2.12 nM	Syn-LC-CTSSpp Fab (from UniProt P25774 17-113)
–	49.3 nM	6.03 nM	Her-HC-CTSSpp IgG (from UniProt P25774 17-113) (antibody)

— article PMC10872949
